Results on one protein are retold here after patent US9994845.

For the series, the target named is fluorescently-labeled taxol-stabilized microtubules.

B1: purified recombinant full-length Kif19 (protein)
chain: MKDSGDSKDQQLMVALRVRPISVAELEEGATLIAHKVDEQMVVLMDPMEDPDDILRAHRSREKSYLFDVAFDFTATQEMVYQATTKSLIEGVISGYNATVFAYGPTGCGKTYTMLGTDQEPGIYVQTLNDLFRAIEETSNDMEYEVSMSYLEIYNEMIRDLLNPSLGYLELREDSKGVIQVAGITEVSTINAKEIMQLLMKGNRQRTQEPTAANQTSSRSHAVLQVTVRQRSRVKNILQEVRQGRLFMIDLAGSERASQTQNRGQRMKEGAHINRSLLALGNCINALSDKGSNKYINYRDSKLTRLLKDSLGGNSRTVMIAHISPASSAFEESRNTLTYAGRAKNIKTRVKQNLLNVSYHIAQYTSIIADLRGEIQRLKRKIDEQTGRGQARGRQDRGDIRHIQAEVQLHSGQGEKAGMGQLREQLASAFQEQMDVRRRLLELENRAMEVQIDTSRHLLTIAGWKHEKSRRALKWREEQRKECYAKDDSEKDSDTGDDQPDILEPPEVAAARESIAALVDEQKQLRKQKLALEQRCRELRARGRRLEETLPRRIGSEEQREVLSLLCRVHELEVENTEMQSHALLRDGALRHRHEAVRRLEQHRSLCDEIIQGQRQIIDDYNLAVPQRLEELYEVYLRELEEGSLEQATIMDQVASRALQDSSLPKITPAGTSLTPDSDLESVKTLSSDAQHLQNSALPPLSTESEGHHVFKAGTGAWQAKSSSVPTPPPIQLGSLVTQEAPAQDSLGSWINSSPDSSENLSEIPLSHKERKEILTGTKCIWVKAARRRSRALGTEGRHLLAPATERSSLSLHSLSEGDDARPPGPLACKRPPSPTLQHAASEDNLSSSTGEAPSRAVGHHGDGPRPWLRGQKKSLGKKREESLEAKRRKRRSRSFEVTGQGLSHPKTHLLGPHQAERISDHRMPVCRHPAPGIRHLGKVTLPLAKVKLPPSQNTGPGDSSPLAVPPNPGGGSRRATRGPRLPHGTSTHGKDGCSRHN
Regarding B1, the “microtubule depolymerization in vitro (TIRF time series, 5 minutes)” value is “Kif-19 depolymerizes microtubules in vitro”.
